Results from paper PMC2756588.

T1: Fus1, P11710
T1 sequence (P11710 432-512, looked up): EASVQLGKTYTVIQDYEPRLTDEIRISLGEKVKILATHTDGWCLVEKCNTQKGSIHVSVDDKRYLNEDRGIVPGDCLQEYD

T2: Myo5, Q04439
T2 sequence (Q04439 1072-1160, looked up): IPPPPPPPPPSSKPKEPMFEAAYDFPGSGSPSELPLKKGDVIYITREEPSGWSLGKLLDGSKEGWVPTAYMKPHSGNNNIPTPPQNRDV

T3: Pin3, Q06449
T3 sequence (Q06449 53-122, looked up): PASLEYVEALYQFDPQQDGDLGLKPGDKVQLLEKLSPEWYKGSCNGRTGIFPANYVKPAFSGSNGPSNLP

T4: Cdc25, P04821
T4 sequence (P04821 50-136, looked up): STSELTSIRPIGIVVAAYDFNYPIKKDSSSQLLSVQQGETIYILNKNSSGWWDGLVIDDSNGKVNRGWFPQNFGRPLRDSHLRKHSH

T5: Boi1, P38041
T5 sequence (P38041 1-86, looked up): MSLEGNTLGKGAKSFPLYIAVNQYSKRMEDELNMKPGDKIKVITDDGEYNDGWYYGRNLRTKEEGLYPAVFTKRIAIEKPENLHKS

T6: Boi2, P39969
T6 sequence (P39969 32-116, looked up): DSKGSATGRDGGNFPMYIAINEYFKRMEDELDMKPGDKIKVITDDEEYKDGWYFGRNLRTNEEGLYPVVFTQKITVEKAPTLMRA

T7: Nbp2, Q12163
T7 sequence (Q12163 103-180, looked up): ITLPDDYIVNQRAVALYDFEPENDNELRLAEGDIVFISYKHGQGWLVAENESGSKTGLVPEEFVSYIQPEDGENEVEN

T8: Bzz1-1, P38822
T8 sequence (P38822 478-572, looked up): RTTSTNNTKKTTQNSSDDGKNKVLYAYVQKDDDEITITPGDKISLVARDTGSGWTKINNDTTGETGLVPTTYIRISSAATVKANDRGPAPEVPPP

T9: Hof1, Q05080
T9 sequence (Q05080 590-669, looked up): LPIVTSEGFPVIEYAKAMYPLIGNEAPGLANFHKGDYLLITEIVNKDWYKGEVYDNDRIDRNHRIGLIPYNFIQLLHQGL

T10: Bzz1-2, P38822
T10 sequence (P38822 568-633, looked up): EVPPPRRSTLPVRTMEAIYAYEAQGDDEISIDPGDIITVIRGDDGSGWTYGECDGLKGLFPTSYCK

T11: Hse1, P38753
T11 sequence (P38753 208-285, looked up): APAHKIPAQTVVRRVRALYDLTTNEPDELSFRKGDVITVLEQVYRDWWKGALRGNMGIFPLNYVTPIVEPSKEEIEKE

T12: Bud14, P27637
T12 sequence (P27637 247-328, looked up): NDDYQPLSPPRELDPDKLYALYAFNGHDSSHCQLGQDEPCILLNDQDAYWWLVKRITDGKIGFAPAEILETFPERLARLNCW

T13: Lsb3, P43603
T13 sequence (P43603 385-451, looked up): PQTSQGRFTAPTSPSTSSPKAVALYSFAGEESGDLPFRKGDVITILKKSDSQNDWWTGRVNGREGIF

T14: Lsb1, P53281
T14 sequence (P53281 45-122, looked up): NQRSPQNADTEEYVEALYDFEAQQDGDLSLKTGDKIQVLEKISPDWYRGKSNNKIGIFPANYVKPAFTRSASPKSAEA

T15: Sla1-3, P32790
T15 sequence (P32790 344-424, looked up): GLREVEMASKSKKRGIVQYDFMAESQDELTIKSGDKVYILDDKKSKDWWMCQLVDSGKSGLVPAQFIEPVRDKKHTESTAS

T16: Sla1-2, P32790
T16 sequence (P32790 60-140, looked up): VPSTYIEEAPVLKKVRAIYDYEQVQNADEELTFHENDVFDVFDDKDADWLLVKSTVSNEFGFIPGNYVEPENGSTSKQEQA

T17: Bbc1, P47068
T17 sequence (P47068 1-78, looked up): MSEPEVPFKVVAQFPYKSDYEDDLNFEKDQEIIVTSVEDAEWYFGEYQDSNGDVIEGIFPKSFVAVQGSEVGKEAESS

T18: Cyk3, Q07533
T18 sequence (Q07533 1-83, looked up): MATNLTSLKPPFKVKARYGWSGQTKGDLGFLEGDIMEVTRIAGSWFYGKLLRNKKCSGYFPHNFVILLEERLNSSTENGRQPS

T19: Pex13, P80667
T19 sequence (P80667 295-386, looked up): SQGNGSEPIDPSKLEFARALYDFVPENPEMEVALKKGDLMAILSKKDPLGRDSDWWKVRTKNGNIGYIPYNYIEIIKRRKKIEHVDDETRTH

T20: Lsb4, P32793
T20 sequence (P32793 402-468, looked up): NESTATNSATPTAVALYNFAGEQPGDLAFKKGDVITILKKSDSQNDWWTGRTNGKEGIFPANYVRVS

T21: Abp1, P15891
T21 sequence (P15891 535-592, looked up): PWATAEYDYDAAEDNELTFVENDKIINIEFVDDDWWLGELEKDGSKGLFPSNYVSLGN


Assays:
Assay in all cases: SPOT array
Bem1-2, P29366 = settings: median of control spots 4347
Chain of Bem1-2, P29366 (P29366 139-227): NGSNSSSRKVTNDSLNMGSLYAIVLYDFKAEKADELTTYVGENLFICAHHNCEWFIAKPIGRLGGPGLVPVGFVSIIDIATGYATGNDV

Fus1, P11710 = biological target: T1, Fus1, P11710; settings: median of control spots 1200
Myo5, Q04439 = biological target: T2, Myo5, Q04439; settings: median of control spots 471
Pin3, Q06449 = biological target: T3, Pin3, Q06449; settings: median of control spots 2171
Cdc25, P04821 = biological target: T4, Cdc25, P04821; settings: median of control spots 969
Boi1, P38041 = biological target: T5, Boi1, P38041; settings: median of control spots 1162
Boi2, P39969 = biological target: T6, Boi2, P39969; settings: median of control spots 1161
GST = settings: median of control spots 978
Nbp2, Q12163 = biological target: T7, Nbp2, Q12163; settings: median of control spots 357
Bzz1-1, P38822 = biological target: T8, Bzz1-1, P38822; settings: median of control spots 4446
Hof1, Q05080 = biological target: T9, Hof1, Q05080; settings: median of control spots 4086
Bzz1-2, P38822 = biological target: T10, Bzz1-2, P38822; settings: median of control spots 4538
Hse1, P38753 = biological target: T11, Hse1, P38753; settings: median of control spots 1727
Bud14, P27637 = biological target: T12, Bud14, P27637; settings: median of control spots 956
Lsb3, P43603 = biological target: T13, Lsb3, P43603; settings: median of control spots 406
Lsb1, P53281 = biological target: T14, Lsb1, P53281; settings: median of control spots 388
Sla1-3, P32790 = biological target: T15, Sla1-3, P32790; settings: median of control spots 5475
Bem1-1, P29366 = settings: median of control spots 4282
Chain of Bem1-1, P29366 (P29366 55-141): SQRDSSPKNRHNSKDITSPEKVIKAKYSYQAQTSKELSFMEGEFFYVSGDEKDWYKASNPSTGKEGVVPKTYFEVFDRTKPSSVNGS

Rvs167, P39743 = settings: median of control spots 2707
Chain of Rvs167, P39743 (P39743 419-482): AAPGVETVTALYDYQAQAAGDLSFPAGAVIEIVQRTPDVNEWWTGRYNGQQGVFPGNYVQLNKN

Sla1-2, P32790 = biological target: T16, Sla1-2, P32790; settings: median of control spots 712
Bbc1, P47068 = biological target: T17, Bbc1, P47068; settings: median of control spots 796
Sho1, P40073 = settings: median of control spots 1148
Chain of Sho1, P40073 (P40073 287-367): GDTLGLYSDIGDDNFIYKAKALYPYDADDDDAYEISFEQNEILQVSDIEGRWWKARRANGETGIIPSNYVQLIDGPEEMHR

Cyk3, Q07533 = biological target: T18, Cyk3, Q07533; settings: median of control spots 1451
Pex13, P80667 = biological target: T19, Pex13, P80667; settings: median of control spots 1341
Lsb4, P32793 = biological target: T20, Lsb4, P32793; settings: median of control spots 397
Abp1, P15891 = biological target: T21, Abp1, P15891; settings: median of control spots 935
Myo3, P36006 = settings: median of control spots 468

| SPOT intensity (Bem1-2, P29366) | SPOT intensity (Fus1, P11710) | SPOT intensity (Myo5, Q04439) | SPOT intensity (Pin3, Q06449) | SPOT intensity (Cdc25, P04821) | SPOT intensity (Boi1, P38041) | SPOT intensity (Boi2, P39969) | SPOT intensity (GST) | SPOT intensity (Nbp2, Q12163) | SPOT intensity (Bzz1-1, P38822) | SPOT intensity (Hof1, Q05080) | SPOT intensity (Bzz1-2, P38822) | SPOT intensity (Hse1, P38753) | SPOT intensity (Bud14, P27637) | SPOT intensity (Lsb3, P43603) | SPOT intensity (Lsb1, P53281) | SPOT intensity (Sla1-3, P32790) | SPOT intensity (Bem1-1, P29366) | SPOT intensity (Rvs167, P39743) | SPOT intensity (Sla1-2, P32790) | Binder | further results |
| --- | --- | --- | --- | --- | --- | --- | --- | --- | --- | --- | --- | --- | --- | --- | --- | --- | --- | --- | --- | --- | --- |
| 0 | 5 | 0 | 1 | 0 | 1 | 1 | 2 | 0 | 0 | 0 | 0 | 2 | 5 | 0 | 0 | 6 | 0 | 0 | 1 | RVRKTHVPASKRPSG | SPOT intensity (Bbc1, P47068): 11; SPOT intensity (Sho1, P40073): 124; SPOT intensity (Cyk3, Q07533): 3; SPOT intensity (Pex13, P80667): 0; SPOT intensity (Lsb4, P32793): 1; SPOT intensity (Abp1, P15891): 64; SPOT intensity (Myo3, P36006): 1 |
| 4 | 8 | 2 | 9 | 11 | 0 | 1 | 3 | 2 | 3 | 0 | 7 | 5 | 4 | 10 | 0 | 30 | 0 | 0 | 0 | RRRDFGAPANKRPRR | SPOT intensity (Bbc1, P47068): 20; SPOT intensity (Sho1, P40073): 90; SPOT intensity (Cyk3, Q07533): 3; SPOT intensity (Pex13, P80667): 2; SPOT intensity (Lsb4, P32793): 4; SPOT intensity (Abp1, P15891): 165; SPOT intensity (Myo3, P36006): 16 |
| 0 | 55 | 0 | 3 | 59 | 2 | 0 | 4 | 9 | 1 | 0 | 0 | 6 | 23 | 0 | 3 | 14 | 0 | 0 | 0 | RKRRTHLRLPLIRSN | SPOT intensity (Bbc1, P47068): 101; SPOT intensity (Sho1, P40073): 47; SPOT intensity (Cyk3, Q07533): 8; SPOT intensity (Pex13, P80667): 0; SPOT intensity (Lsb4, P32793): 0; SPOT intensity (Abp1, P15891): 75; SPOT intensity (Myo3, P36006): 5 |
| 6 | 75 | 2 | 11 | 87 | 16 | 5 | 3 | 63 | 1 | 24 | 0 | 53 | 23 | 8 | 114 | 221 | 0 | 0 | 5 | NGRRRPKFRVQLSGN | SPOT intensity (Bbc1, P47068): 227; SPOT intensity (Sho1, P40073): 155; SPOT intensity (Cyk3, Q07533): 8; SPOT intensity (Pex13, P80667): 5; SPOT intensity (Lsb4, P32793): 9; SPOT intensity (Abp1, P15891): 209; SPOT intensity (Myo3, P36006): 30 |

More lines, now with the values behind:

| Binder | SPOT intensity (Bem1-2, P29366) | SPOT intensity (Fus1, P11710) | SPOT intensity (Myo5, Q04439) | SPOT intensity (Pin3, Q06449) | SPOT intensity (Cdc25, P04821) | SPOT intensity (Boi1, P38041) | SPOT intensity (Boi2, P39969) | SPOT intensity (GST) | SPOT intensity (Nbp2, Q12163) | SPOT intensity (Bzz1-1, P38822) | SPOT intensity (Hof1, Q05080) | SPOT intensity (Bzz1-2, P38822) | SPOT intensity (Hse1, P38753) | SPOT intensity (Bud14, P27637) | SPOT intensity (Lsb3, P43603) | SPOT intensity (Lsb1, P53281) | SPOT intensity (Sla1-3, P32790) | SPOT intensity (Bem1-1, P29366) | SPOT intensity (Rvs167, P39743) | SPOT intensity (Sla1-2, P32790) | further results |
| --- | --- | --- | --- | --- | --- | --- | --- | --- | --- | --- | --- | --- | --- | --- | --- | --- | --- | --- | --- | --- | --- |
| YRRKSIPFAPHQITA | 3 | 2 | 0 | 9 | 2 | 0 | 1 | 1 | 0 | 0 | 5 | 5 | 9 | 0 | 0 | 8 | 28 | 0 | 0 | 0 | SPOT intensity (Bbc1, P47068): 2; SPOT intensity (Sho1, P40073): 17; SPOT intensity (Cyk3, Q07533): 0; SPOT intensity (Pex13, P80667): 10; SPOT intensity (Lsb4, P32793): 2; SPOT intensity (Abp1, P15891): 12; SPOT intensity (Myo3, P36006): 0 |
| KRNRLKILLPFLEQS | 0 | 169 | 0 | 17 | 28 | 9 | 3 | 5 | 22 | 0 | 6 | 0 | 25 | 8 | 2 | 34 | 49 | 0 | 0 | 0 | SPOT intensity (Bbc1, P47068): 46; SPOT intensity (Sho1, P40073): 81; SPOT intensity (Cyk3, Q07533): 14; SPOT intensity (Pex13, P80667): 11; SPOT intensity (Lsb4, P32793): 0; SPOT intensity (Abp1, P15891): 64; SPOT intensity (Myo3, P36006): 10 |
